These results are taken from the supplement of paper PMC10567573.

± gives the standard deviation.

A short description of the series: protein stability index of a GFP-peptide fusion (GPS, HEK-293T) (PSI 1-6); higher = more stable.
The mark [1] stands for this setting: treatment: DMSO, c terminus: a fixed tail appended.
Where [2] appears, read: treatment: MLN4924 1 uM, 8 h, c terminus: a fixed tail appended.
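Note: 24-mer peptide tiles fused after GFP, lentivirally expressed, FACS-sorted into six equal bins by GFP/DsRed ratio, decoded by Illumina sequencing, PSI is the read-weighted mean bin number.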

Turning to DERVLENVEHYQELKKMVQQSDLG [ALG2], the protein stability index by setting is: under setting [1], 4.95 ± 0.38; under setting [2], 4.8 ± 0.28.
As for DESQISAEEAEDHGRIPDPDDFVP [FAM189A2], the protein stability index was 5.6 ± 0.2 under setting [1] and 5.61 ± 0.15 under setting [2].
Regarding DETIGFEDILNDPSQSEVMGEPHL [POMP], the protein stability index came to 5.5 ± 0.15 under setting [1] and 5.46 ± 0.086 under setting [2].
The corresponding values for DFGACDGGLLTGNEKITMQNLNDR [KRT13] are 4.57 ± 0.33 and 4.53 ± 0.37.
In the same order, the values of DGIDRWIKEIDEHAPGVPKILVGN [RAB40B] are 3.68 ± 0.28 and 3.85 ± 0.33.
As to DGNLCLHVPNPPSGISFPSVVDHP [HESX1], the protein stability index is, setting by setting: under setting [1], 3.73 ± 0.5; under setting [2], 3.78 ± 0.15.
In the same order, the values of DGVITASEDRTIRVWLKRDSGQYW [WDFY1] are 2.65 ± 0.65 and 2.76 ± 0.18.
The corresponding values for DHKPKLCRLAKGENGYGFHLNAIR [PDZK1] are 2.25 ± 0.24 and 2.36 ± 0.56.
In the same order, the values of DICLAQLEELGTLNVFQTVSRMRT [PTPN9] are 2.97 ± 0.22 and 2.79 ± 0.33.
For the sequence DKDRRFVFSYFLATDMISIFEPPV [EFHC1], the protein stability index is, setting by setting: under setting [1], 2.38 ± 0.47; under setting [2], 2.72 ± 0.61.
Consider DKLSQKSSSSKLSRSPLKIVKKPK [EPB41L3], for which the protein stability index is 4.3 ± 0.66 under setting [1] and 4.79 ± 0.23 under setting [2].
Turning to DKVLRFAQQIRLHHFNSSHLEIDD [MYORG], the protein stability index reads like this: under setting [1], 2.93 ± 0.17; under setting [2], 2.95 ± 0.23.
Consider DLKTLSDDIKESLESEGKNSKKEE [ATE1], for which the protein stability index was determined as 5.31 ± 0.54 under setting [1] and 5.32 ± 0.31 under setting [2].
In the same order, the values of DPELKNLFDMCGISEAQLKDRETS [WASL] are 4.72 ± 0.063 and 4.68 ± 0.21.
For the sequence DPKKLLTQYFVQENYLEYRQVPGS [MAGEA6], the protein stability index amounted to 3.12 ± 0.1 under setting [1] and 3 ± 0.39 under setting [2].
In the same order, the values of DRDSIWKCLKFLGSRHPTLVLPLV [INTS4] are 2.15 ± 0.24 and 2.15 ± 0.22.
The corresponding values for DSFDKFDFCEPSFVTGNCLEISPD [PCMTD2] are 4.36 ± 0.12 and 4.66 ± 0.46.
Turning to DSISLHQPCNPPAPAGDKGFQPPS [DMRTC1], the protein stability index is, setting by setting: under setting [1], 5 ± 0.27; under setting [2], 5 ± 0.16.
On to DTDVDMEGLRRRRGREAGPPQPMV [PBXIP1], for which the protein stability index by setting is: under setting [1], 4.75 ± 0.36; under setting [2], 5.04 ± 0.11.
The corresponding values for DTREEKRFLGEGHHRVQENQMDKA [CHGB] are 5.25 ± 0.13 and 5.16 ± 0.25.
As to DVKKEKLSPDIMKDAYVQKLVKVC [TENT5D], the protein stability index by setting is: under setting [1], 2.94 ± 0.52; under setting [2], 3.1 ± 0.076.
The corresponding values for DVLSCEYYSPILDQWTPIAAMLRG [KLHL13] are 2.2 ± 0.46 and 2.36 ± 0.23.
In the same order, the values of DVRLDREHRVAGIFPRLSFKDKST [CLPTM1] are 3.79 ± 0.063 and 4 ± 0.089.
With DYEAGQHMEDPRRAGKMLMTLPLL [ESRRG], the protein stability index reads like this: under setting [1], 3.56 ± 0.29; under setting [2], 3.52 ± 0.15.
The corresponding values for EADENENITVVKGIRLSENVIDRM [CHCHD3] are 4.75 ± 0.17 and 4.7 ± 0.11.
The corresponding values for EAGAPGEEDIQGPTKADTEKWAEG [CHGB] are 5.64 ± 0.29 and 5.59 ± 0.32.
In the case of EAGGKQKAVEEELDAEDRPAWNSK [SLC6A17], the protein stability index came to 5.62 ± 0.16 under setting [1] and 5.57 ± 0.15 under setting [2].
Take EAGSAGHVEVARLLLENGAGINTH [ANKRD17]: the protein stability index stood at 4.11 ± 0.36 under setting [1] and 4.25 ± 0.26 under setting [2].
The corresponding values for EAIKGLNGQKPLGAAEPITVKFAN [ELAVL3] are 3.94 ± 0.22 and 4.06 ± 0.28.
The corresponding values for EAQISDPFAPEPTPPTTTAEIATA [SNAP91] are 5.42 ± 0.28 and 5.46 ± 0.13.
Sequence EARSLEHTLPVNRETLKRKVSGNR [ESR2] had a protein stability index under setting [1] of 4.95 ± 0.27 and a protein stability index under setting [2] of 5.16 ± 0.2.
The corresponding values for EAVSTLLGAVAVFAVGYIKISWST [SLC19A2] are 2.82 ± 0.21 and 2.98 ± 0.73.
EDEKQRLQNEVRQLTEKLARVNEN [SSNA1]: the protein stability index stood at 4.99 ± 0.35 under setting [1] and 5.17 ± 0.24 under setting [2].
The corresponding values for EDGFGEHPFYHCLVAEVPKEHWTP [SAT1] are 3.05 ± 0.22 and 3.12 ± 0.27.
The corresponding values for EDGIHTLTCALMLLNTDLHGHNIG [PSD2] are 2.78 ± 0.5 and 2.75 ± 0.36.
On to EDKTFGLKNKKGAKQQKFIKAVTH [ZC3H15], for which the protein stability index is 4.26 ± 0.3 under setting [1] and 4.39 ± 0.23 under setting [2].
Regarding EDSNWEKSPDNEDSGDSKDIRLTL [GOLPH3L], the protein stability index came out at 5.37 ± 0.16 under setting [1] and 5.37 ± 0.12 under setting [2].
The corresponding values for EDTHQSPEPEDEPGGPGAMTESLE [RSPH3] are 5.43 ± 0.38 and 5.64 ± 0.14.
In the same order, the values of EEEEAAMYEEEMEREEITTKKRKL [FAM50A] are 5.66 ± 0.32 and 5.38 ± 0.34.
In the same order, the values of EEEMRSHYVAQTGILWLLMNNCFL [GAGE1] are 3.15 ± 0.36 and 3.2 ± 0.35.
For the sequence EEKEAWYREESDSLGQDLRRLRQE [DAPK3], the protein stability index runs as follows: under setting [1], 5.28 ± 0.31; under setting [2], 5.35 ± 0.17.
Turning to EENELTSLAEDLLGLTDPNGGLA [TRADD], the protein stability index reads like this: (treatment: DMSO, c terminus: native) 5.14 ± 0.19; (treatment: MLN4924 1 uM, 8 h, c terminus: native) 5.06 ± 0.43.
In the case of EESGSSSASEEEDTKPKPTKRKRK [INTS3], the protein stability index reads like this: under setting [1], 5.55 ± 0.17; under setting [2], 5.57 ± 0.29.
The corresponding values for EGDTVSQELLDTVLVNLVPAHKNL [PDS5B] are 3.65 ± 0.24 and 3.94 ± 0.34.
The corresponding values for EGIRQTEYTLTGLKFDMKYMNFRV [FSD1] are 2.67 ± 0.54 and 2.56 ± 0.52.
The corresponding values for EGLLNTYQELLGLSFEQMTDAHVW [NLN] are 2.41 ± 0.32 and 2.49 ± 0.38.
As to EGQARCLAHLGRHMEALEIAANLE [C8orf76], the protein stability index by setting is: under setting [1], 3.6 ± 0.42; under setting [2], 3.74 ± 0.39.
Turning to EIFGPVTCVVPFDSEEEVIERANN [ALDH8A1], the protein stability index is, setting by setting: under setting [1], 5.18 ± 0.17; under setting [2], 5.17 ± 0.22.
The corresponding values for EIHSKTTAYSRLNETQPIDLSGLP [RNF180] are 3.6 ± 0.14 and 3.75 ± 0.25.
Sequence EIVSIWILSFILAIPEAIGFVMVP [EDNRA] registered a protein stability index under setting [1] of 2.86 ± 0.18 and a protein stability index under setting [2] of 3.03 ± 0.17.
EKELVFDIDMTDYDDVRRCCSSAD [PRIM1]: the protein stability index under setting [1] came to 4.73 ± 0.27 and the protein stability index under setting [2] amounted to 4.7 ± 0.35.
On to EKEYKTYKENFLKRFQLTKLPPYL [USP39], for which the protein stability index came to 2.5 ± 0.17 under setting [1] and 2.93 ± 0.28 under setting [2].
EKKESLGAAQEALSIQLQPKETQP [ZNF232]: the protein stability index reads like this: under setting [1], 5.35 ± 0.35; under setting [2], 5.5 ± 0.19.
Consider ELIDNLKEAQYIRTELVEQAFRAI [PCMTD2], for which the protein stability index turned out to be 2.54 ± 0.32 under setting [1] and 2.29 ± 0.44 under setting [2].
For ELIRNIQELLKRTIMQAVSQIRLN [TEKT4], the protein stability index reads like this: under setting [1], 3 ± 0.46; under setting [2], 2.77 ± 0.53.
The corresponding values for ELKEKEATLCLEFLLQNDANPSIR [ANKRD44] are 3.19 ± 0.096 and 3.25 ± 0.31.
The corresponding values for ELQKIVQAGDKDLDGQLDFEEFVH [SLC25A25] are 3.93 ± 0.046 and 4.19 ± 0.21.
In the same order, the values of ELSAIGSDTTPLPSWAALNSSTWG [SNX8] are 2.94 ± 0.36 and 2.75 ± 0.18.
As to ELSEKNFQLNQDKMNFSTLRNIQG [POMP], the protein stability index runs as follows: under setting [1], 2.69 ± 0.59; under setting [2], 3.27 ± 0.44.
In the same order, the values of EMRISESAASGARFPLDSAQDPDV [PCDHGC5] are 5.38 ± 0.21 and 5.35 ± 0.16.
Regarding EMSLPEVQKDKYPEEFSLLKLQTK [SPATS1], the protein stability index runs as follows: under setting [1], 4.29 ± 0.28; under setting [2], 4.04 ± 0.34.
For EPELQVGIDIMKTSFPGRGSIPEF [AASDHPPT], the protein stability index reads like this: under setting [1], 3.67 ± 0.22; under setting [2], 3.61 ± 0.29.
As to EPESKNAPHSQGEYDVYSTFQSHE [PPP2R2C], the protein stability index amounted to 5.19 ± 0.15 under setting [1] and 5.19 ± 0.15 under setting [2].
Consider EPREFSSRNFGVRNQGNFSVVGTV [ZC2HC1C], for which the protein stability index by setting is: under setting [1], 3.06 ± 0.31; under setting [2], 3.01 ± 0.24.
Turning to EQILELLVLEQFLTILPTEIETWV [ZNF449], the protein stability index is, setting by setting: under setting [1], 3.15 ± 0.38; under setting [2], 2.73 ± 0.52.
In the same order, the values of EQPRLEFLMRKCGWFVRELRVEFA [FBXO33] are 2.64 ± 0.34 and 2.12 ± 0.24.
The corresponding values for EQTYHAKLENARLSSEMNTSTVNS [LMNB1] are 4.88 ± 0.14 and 5.03 ± 0.19.
The corresponding values for ERNRMHGLNDALDNLRKVVPCYSK [NEUROD6] are 2.75 ± 0.47 and 3.02 ± 0.32.
As to ERQVLPDPEVLEAVGDRQDGLREQ [PBXIP1], the protein stability index reads like this: under setting [1], 5.54 ± 0.26; under setting [2], 5.64 ± 0.1.
Turning to ERVDGRRLVYKFGKNSSGWKEEEV [ELF3], the protein stability index was 4.11 ± 0.37 under setting [1] and 4.39 ± 0.15 under setting [2].
Consider ERVEAFSDGVYAIVATLLILDICE [TMEM175], for which the protein stability index reads like this: under setting [1], 3.05 ± 0.15; under setting [2], 3.15 ± 0.22.
In the same order, the values of ERVVINISGLRFETQLKTLAQFPN [KCNA1] are 2.47 ± 0.29 and 2.32 ± 0.55.
